The record followed here is patent publication US6896884B2, “Human chitinase, its recombinant production, its use for decomposing chitin, its use in therapy or prophylaxis against infection diseases” (Universiteit va Amsterdam, priority 1995, dated 2005).

Data set [1] deals with a variety of proteases. In kind it is in vitro ADME. On the procedure: Successful proteolytic cleavage is only accomplished after denaturation of the enzyme, e.g. after heating in the presence of sodium dodecylsulphate. […] In analogy, chitotriosidase is stable at 37° C. in macrophage-conditioned medium that contains large quantities of various other secreted lytic enzymes.

The conditions of data set [2]: rat, in vivo. From the text:
A prerequisite for the intravenous application of the chitinase is insight in its clearance. In the blood stream the most predominant isozyme is the 50 kDa protein. In tissue predominantly a 39 kDa isozyme is encountered. This appears to be formed by uptake of 50 kDa protein followed by proteolytic cleavage to a 39 kDa form that is remarkably stable in the lysosomal environment. […] Clearance is not a very rapid process as monitored by the disappearance of activity of human chitotriosidase in the blood stream of intravenously injected rats, the half life being about one hour. Only minor amounts of chitotriosidase are daily excreted into the urine. It is conceivable that some enzyme is efficiently recaptured by proximal tube epithelial cells since kidney is found to be extremely rich in ‘lysosomally processed’ 39 kDa enzyme.

Data set [3] in a line: hydrolysis of 4-methylumbelliferyl-chitobioside versus 4-methylumbelliferyl-chitotrioside. In kind it is biochemical. To be noted: 4-methylumbelliferyl substrates. From the text:
Purified 50 kDa and 39 kDa tissue chitotriosidases, and 50 kDa and 39 kDa chitozymes produced by recombinant DNA technology, are able to hydrolyse 4-methylumbelliferyl-chitotrioside and 4-methylumbelliferyl-chitobioside, the ratio of chitobioside activity to chitotrioside activity being about 0.7. Furthermore, p-nitrophenyl-chitotrioside and p-nitrophenyl-chitobioside are also efficiently hydrolyzed.

Data set [4] concerns Mucor mucedo. Nature of the data set: fungicidal effect on hyphal growth. In kind it is cell-based. To be noted: for effect on hyphal growth, microscopical analysis: enzyme solution in 0.15 M NaCl pipetted on hyphal tips. On the procedure:
To test whether human chitotriosidase can exert an antifungal action, a chitinous fungus (Mucor mucedo) was grown on plates (containing malt extract, peptone, glucose and agar) under a Cellophane membrane in order to keep the hyphae flat against the agar surface (see ref.16). Individual sectors were cut out and mounted on microscope slides. Purified chitozyme 50 and chitozyme 39 were dialysed against 0.15 M sodium chloride. Samples of enzyme-containing solutions, and 0.15 M NaCl were pipetted on the hyphal tips. […] Application of saline had no effect. Negative effects on hyphal growth were detectable using chitozyme solutions with a concentration of enzyme as little as 0.005 mg/ml.

The format of data set [5] is in vitro ADME. On the procedure: Production of the chitozymes via conventional technology in insect cells, plant cells, or vertebrate cells should be possible. Finally, transgenic animals could be envisioned as producers of large quantities of chitozymes in their milk for the applications described above. […] Successful proteolytic cleavage is only accomplished after denaturation of the enzyme, e.g. after heating in the presence of sodium dodecylsulphate. […] In analogy, chitotriosidase is stable at 37° C. in macrophage-conditioned medium that contains large quantities of various other secreted lytic enzymes.

Data set [6] is classed as physicochemical.
Data set [7] is described as follows: chitin azure degradation (release of soluble azure at 550 nm). The data set is classed as biochemical. As to conditions: chitin azure 10 mg/ml, citrate/phosphate buffer pH 5.2; control chitinase from Serratia marcescens. On the procedure: Chitin azure (Sigma) suspended in citrate/phosphate buffer (pH 5.2) at a final concentration of 10 mg/ml was used to monitor chitinase activity. Chitin degradation was detected spectrophotometrically at 550 nm by determination of release of soluble azure (18). Chitinase from Serratia marcescens (Sigma) was used as control. […] See for example ref.18.

Data set [8] concerns cell wall suspension of Micrococcus lysodeikticus. Nature of the data set: lysozyme activity towards bacterial cell wall suspension. The data set is classed as biochemical.

For “chitozyme 50: recombinant human chitotriosidase isozyme of 50 kDa, encoded by chi.50 cDNA (SEQ ID NO:4), produced by transfected COS cells”, the “stability against a variety of proteases” value in data set [1] is “extremely stable”. Further, in data set [2], the “clearance from the circulation” value was “not immediately cleared” and the “half life in the circulation, compared between isozymes” value was “somewhat longer than that of the 39 kDa enzyme”. In addition, the “ratio of chitobioside activity to chitotrioside activity” value (“ratio of chitobioside activity” for short) in data set [3] is recorded as “about 0.7”. The “effect on hyphal growth, microscopical analysis” value in data set [4] is reported as “immediate cessation of hyphal growth”.
Take “tissue chitotriosidase: chitotriosidase purified from Gaucher disease spleen, isoform not specified”: in data set [2], the “clearance from the circulation” value is listed as “not immediately cleared”.
On to “chitozyme 39: recombinant human chitotriosidase isozyme of 39 kDa, encoded by chi.39 cDNA (SEQ ID NO:6), produced by transfected COS cells”, for which the “stability against a variety of proteases” value in data set [1] is on record as “extremely stable”. The “clearance from the circulation” value in data set [2] was “not immediately cleared”. For the same substance, in data set [3], the “ratio of chitobioside activity” value is listed as “about 0.7”. In addition, the “effect on hyphal growth, microscopical analysis” value in data set [4] is reported as “immediate cessation of hyphal growth”.
Regarding “chitotriosidase: human chitinase produced by macrophages, named chitotriosidase; isoform not specified at the place”, in data set [5], the “loss of enzyme activity on prolonged incubation” value is “does not result in detectable loss of enzyme activity” and the “stability in macrophage-conditioned medium” value is given as “stable”. Besides, in data set [6] (storage for several days at room temperature), the “enzyme activity after spotting on filter paper” value is recorded as “enzyme activity is still recovered”. Also, the “loss of enzyme activity upon storage and freeze-thaw” value in data set [6] (−20 or −70° C., repeated cycles of freezing and thawing) is “No loss of enzyme activity”. In addition, the “chitinase activity, related to hydrolysis of 4-methyl-umbelliferyl-chitotrioside” value in data set [7] was “comparable to that of the bacterial chitinase”. In data set [8], the “activity towards Micrococcus lysodeikticus cell wall suspension (lysozyme activity)” value is given as “No significant activity”. Also, in data set [4] (Mucor species), the “effect on fungal growth” value is on record as “inhibited growth”.
As to “chitozyme: recombinant chitotriosidase, isozyme not specified at the place”, in data set [5], the “stability when added to cow milk” value is given as “completely stable”.
For “50 kDa tissue chitotriosidase: 50 kDa chitotriosidase purified from Gaucher disease spleen”, the “ratio of chitobioside activity” value in data set [3] is recorded as “about 0.7”.
